The text below walks through data of article PMC5648539 (Science signaling, 2017).

The target in the assay is wild-type CXCL12 (stromal cell-derived factor-1) (UniProt P48061-2 22-89). In words: radioligand binding.

B1: FLAG-tagged human CXCR4, wild type (receptor, UniProt P61073 1-352, looked up)
chain: MEGISIYTSDNYTEEMGSGDYDSMKEPCFREENANFNKIFLPTIYSIIFLTGIVGNGLVILVMGYQKKLRSMTDKYRLHLSVADLLFVITLPFWAVDAVANWYFGNFLCKAVHVIYTVNLYSSVLILAFISLDRYLAIVHATNSQRPRKLLAEKVVYVGVWIPALLLTIPDFIFANVSEADDRYICDRFYPNDLWVVVFQFQHIMVGLILPGIVILSCYCIIISKLSHSKGHQKRKALKTTVILILAFFACWLPYYIGISIDSFILLEIIKQGCEFENTVHKWISITEALAFFHCCLNPILYAFLGAKFKTSAQHALTSVSRGSSLKILSKGKRGGHSSVSTESESSSFHSS
As to B1, binding was characterised by a dissociation constant (Kd) of 1.45 nM.

B2: FLAG-tagged human CXCR4 Ile4Glu/Ile6Glu (receptor, UniProt P61073 1-352, looked up)
chain: MEGESEYTSDNYTEEMGSGDYDSMKEPCFREENANFNKIFLPTIYSIIFLTGIVGNGLVILVMGYQKKLRSMTDKYRLHLSVADLLFVITLPFWAVDAVANWYFGNFLCKAVHVIYTVNLYSSVLILAFISLDRYLAIVHATNSQRPRKLLAEKVVYVGVWIPALLLTIPDFIFANVSEADDRYICDRFYPNDLWVVVFQFQHIMVGLILPGIVILSCYCIIISKLSHSKGHQKRKALKTTVILILAFFACWLPYYIGISIDSFILLEIIKQGCEFENTVHKWISITEALAFFHCCLNPILYAFLGAKFKTSAQHALTSVSRGSSLKILSKGKRGGHSSVSTESESSSFHSS
The molecule B2 came in with a Kd of 45.7 nM.
